The results in this text go back to patent US20250115680A1 (PROFOUNDBIO US, published 2025).

Test [1] addresses T1, human PTK7 on the surface of PTK7-expressing tumor cell lines (human, UniProt Q13308 31-1070).
T1 construct: whole, on cells
T1 sequence (looked up): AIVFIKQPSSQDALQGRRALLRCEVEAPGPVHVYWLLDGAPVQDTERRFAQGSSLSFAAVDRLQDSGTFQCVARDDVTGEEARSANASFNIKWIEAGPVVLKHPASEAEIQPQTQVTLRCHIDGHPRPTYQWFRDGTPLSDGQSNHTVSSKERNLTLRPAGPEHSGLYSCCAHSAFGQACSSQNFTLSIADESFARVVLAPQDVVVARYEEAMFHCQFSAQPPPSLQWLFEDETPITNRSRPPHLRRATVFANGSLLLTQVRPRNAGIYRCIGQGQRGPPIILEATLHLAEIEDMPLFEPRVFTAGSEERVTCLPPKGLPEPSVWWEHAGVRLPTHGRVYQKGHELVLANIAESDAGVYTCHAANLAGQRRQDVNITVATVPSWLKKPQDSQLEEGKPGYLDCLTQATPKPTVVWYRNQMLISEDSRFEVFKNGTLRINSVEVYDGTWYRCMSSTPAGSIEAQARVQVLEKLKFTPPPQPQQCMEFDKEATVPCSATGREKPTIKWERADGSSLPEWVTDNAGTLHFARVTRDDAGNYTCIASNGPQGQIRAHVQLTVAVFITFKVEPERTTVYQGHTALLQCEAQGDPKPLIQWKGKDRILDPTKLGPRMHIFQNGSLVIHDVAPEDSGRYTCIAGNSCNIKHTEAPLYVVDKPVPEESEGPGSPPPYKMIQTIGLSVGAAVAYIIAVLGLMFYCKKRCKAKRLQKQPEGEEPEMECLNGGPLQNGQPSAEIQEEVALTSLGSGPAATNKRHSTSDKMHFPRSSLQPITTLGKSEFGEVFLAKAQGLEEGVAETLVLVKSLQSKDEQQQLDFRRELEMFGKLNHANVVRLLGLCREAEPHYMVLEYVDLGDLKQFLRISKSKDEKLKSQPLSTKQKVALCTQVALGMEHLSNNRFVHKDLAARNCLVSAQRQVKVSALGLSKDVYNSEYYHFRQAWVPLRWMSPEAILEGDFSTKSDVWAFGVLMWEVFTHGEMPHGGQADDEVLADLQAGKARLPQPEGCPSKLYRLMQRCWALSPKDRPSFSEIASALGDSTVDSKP
Briefly: flow cytometry on MDA-MB-453 cells, PE anti-human Fc detection, MFI(PE). A general note: Flow cytometry measures light scatter and fluorescence of single cells or particles in a stream.

Test [2] deals with T2, human PTK-7 recombinant protein (human, UniProt Q13308 31-704, limits assumed).
T2 construct: also called human PTK7 protein
T2 sequence (looked up): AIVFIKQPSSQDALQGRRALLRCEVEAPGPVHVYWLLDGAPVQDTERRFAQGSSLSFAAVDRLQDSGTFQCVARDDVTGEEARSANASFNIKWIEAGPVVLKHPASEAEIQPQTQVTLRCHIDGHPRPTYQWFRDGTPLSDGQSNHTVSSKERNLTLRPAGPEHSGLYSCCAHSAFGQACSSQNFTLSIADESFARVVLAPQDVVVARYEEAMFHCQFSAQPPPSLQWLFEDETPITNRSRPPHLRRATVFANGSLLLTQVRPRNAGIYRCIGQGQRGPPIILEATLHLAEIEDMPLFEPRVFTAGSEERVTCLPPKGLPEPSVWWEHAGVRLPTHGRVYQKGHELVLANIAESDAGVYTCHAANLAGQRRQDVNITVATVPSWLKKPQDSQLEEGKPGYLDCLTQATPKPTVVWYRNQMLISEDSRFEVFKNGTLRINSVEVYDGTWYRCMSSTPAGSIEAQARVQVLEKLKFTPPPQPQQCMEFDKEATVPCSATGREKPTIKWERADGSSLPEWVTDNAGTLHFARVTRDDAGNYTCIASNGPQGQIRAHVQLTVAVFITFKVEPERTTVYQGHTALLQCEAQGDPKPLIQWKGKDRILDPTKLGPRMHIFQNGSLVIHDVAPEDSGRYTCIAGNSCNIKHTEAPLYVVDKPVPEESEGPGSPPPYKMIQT
In words: ELISA, plate coated with 2 ug/mL human PTK-7 recombinant protein, HRP anti-human Fc detection, OD450. The procedure: (§1) Binding specificity property was tested by ELISA according to a standard protocol. Specifically, 96-well micro-plates were coated with 2 μg/mL human, cynomolgus, mouse, and rat PTK-7 recombinant protein in PBS 100 μL per well, incubated overnight at 4° C. Plates were washed twice by TBS+0.5% Tween20. 200 μL of blocking buffer (2% BSA in PBS) was added to each well and incubated at 37° C. for 2 hours. Plates were washed using the buffer mentioned above. Serially diluted antibodies were added to the ELISA plate with 100 μL per well and incubated for 1 hour at room temperature. Then plates were washed for 3 times. After washing, HRP conjugated anti-human Fc antibody solution (abcam, ab98624, diluted with blocking buffer) was added to the plate with 100 μl per well. The plates were incubated at room temperature for 1 hour and then washed for 3 times. Then TMB solution was added to plates with 100 μl per well, placed at room temperature for 5-15 mins, then the stop solution (2M H₂SO₄) was added with 50 μl per well. Finally, the result was measured by absorbance at A₄₅₀ and A₆₃₀.
Background: An ELISA detects its analyte on a solid surface through an enzyme-linked reagent.

Test [3] addresses T1, human PTK7 on the surface of …. Briefly: flow cytometry on PA-1 cells, PE anti-human Fc detection, MFI(PE).
Test [4] concerns the target T2, human PTK-7 recombinant protein. In words: ELISA, plate-coated human PTK7 protein, anti-human Fc-HRP detection. The procedure:
as §1

Test [5] concerns the target T1, human PTK7 on the surface of …. In words: flow cytometry on MDA-MB-231 cells, PE anti-human Fc detection, MFI(PE).
Test [6] has the same target. Briefly: flow cytometry on MDA-MB-468 cells, PE anti-human Fc detection, MFI(PE).

B1: humanized antibody 13C4 (antibody, V domains shown)
VH: QVQLVESGGGLVKPGGSLRLSCAASGFAFSTYDMFWIRQAPGKGLEWVSTISSGGGYTYYPGSVKGRFTISRDNAKNSLYLQMNSLRAEDTAVYYCVRPLLRDSYFYFDVWGQGTMVTVSS
VL: EIVMTQSPATLSVSPGERATLSCRASSSVSSSYLHWYQQKPGQAPRLLIFRTSNLASGIPARFSGSGSGTEYTLTISSLQSEDAAVYYCQQYSGYPLTFGQGTKLEIK
notes: Only variable regions are tied to 13C4; It was detected with anti-human Fc
As usually defined, the EC50 is the concentration at which the effect is half-maximal. On to B1, for which the half-maximal effective concentration (EC50) in test [1] is 0.623 nM; in test [2], 0.0221 nM; in test [3], 0.808 nM; in test [4], 0.022 nM; in test [5] it was 0.828 nM; in test [6], 0.558 nM.

B2: humanized antibody 2C5 (antibody, V domains shown)
VH: QVQLVQSGAEVKKPGASVKVSCKASGYTFTDYYINWVRQAPGQGLEWMGDINPYSGGPVYNQKFMARVTMTVDKSINTAYMELSRLRSDDTAVYYCARGDYYGSNYNYWGQGTLVTVSS
VL: EIVLTQSPATLSVSPGERATLSCRASQNIGTSIHWYQQKPGQAPRLLIKFASESISGIPARFSGSGSGTEFTLTISSLQSEDIAVYYCQQSNNWPYTFGQGTKLEIK
notes: Only variable regions are tied to 2C5; It was detected with anti-human Fc, so it has a human Fc
As for B2, the EC50 came out at 0.488 nM in test [1]; 0.0267 nM in test [2]; 0.711 nM in test [3]; 0.027 nM in test [4]; 0.506 nM in test [5]; 0.543 nM in test [6].

B3: humanized antibody 2C8 (antibody, V domains shown)
VH: QIQLVQSGAEVKKPGASVKVSCKASGYTFTTYGMSWVRQAPGQGLEWMGWINTHSGVPTYVDEFKGRVTMTLDTSTSTAYMELSSLRSEDTAVYYCARSPFDYGSRGAWFVYWGQGTTVTVSS
VL: DVVMTQSPDSLAVSLGERATINCRSSQSIVHNSGDTYLEWYQQKPGQPPKLLIYKVSNRFPGVPDRFSGSGSGTDFTLTISSLQAEDLAVYYCFQGSHVPWTFGGGTKVEIK
notes: Only variable regions are tied to 2C8 by name; It was detected with anti-human Fc
As to B3, the EC50 in test [1] turned out to be 0.339 nM; in test [2], 0.0317 nM; in test [3], 0.562 nM; in test [4] it was 0.032 nM; in test [5], 0.423 nM; in test [6] it was 0.481 nM.
